Data reported in publication doi:10.1101/2021.08.20.457142.

B1: MKK6 D-site peptide / p38-alpha (MAPK14) L195A, full length (parent complex)
chain 1: SQSKGKKRNPGLKIPKEAFEQP
chain 2: MSQERPTFYRQELNKTVWEVPERYQNLSPVGSGAYGSVCAAFDTKTGHRVAVKKLSRPFQSIIHAKRTYRELRLLKHMKHENVIGLLDVFTPARSLEEFNDVYLVTHLMGADLNNIVKCQKLTDDHVQFLIYQILRGLKYIHSADIIHRDLKPSNLAVNEDCELKILDFGLARHTDDEMTGYVATRWYRAPEIMANWMHYNQTVDIWSVGCIMAELLTGRTLFPGTDHIDQLKLILRLVGTPGAELLKKISSESARNYIQSLAQMPKMNFANVFIGANPLAVDLLEKMLVLDSDKRITAAQALAHAYFAQYHDPDDEPVAEPYDQSFESRDFLIDEWKSLTYDEVISFVPPPLDQEEMES

Variants of: B1

**Q.** chain 1 P15Y was tested. Which screen value did it give?
**A.** 0.93 Z-score of the enrichment rate within one screen of 711 sequences

**Q.** For chain 1 R8S, which screen value is on record?
**A.** 0.135 Z-score of the enrichment rate within one screen of 711 sequences

**Q.** With chain 1 P15G as the variant, how does the screen value read?
**A.** 0.848 Z-score of the enrichment rate within one screen of 711 sequences

**Q.** chain 1 K4F was tested. Which screen value did it give?
**A.** 1.08 Z-score of the enrichment rate within one screen of 711 sequences

**Q.** Which screen value does the source give for chain 1 N9T here?
**A.** 0.467 Z-score of the enrichment rate within one screen of 711 sequences

**Q.** With chain 1 K4Q as the variant, how does the screen value read?
**A.** 1.02 Z-score of the enrichment rate within one screen of 711 sequences

**Q.** With chain 1 K7G as the variant, how does the screen value read?
**A.** 1.17 Z-score of the enrichment rate within one screen of 711 sequences

**Q.** How did the screen value turn out when chain 1 K4P was run?
**A.** -0.0666 Z-score of the enrichment rate within one screen of 711 sequences

**Q.** chain 1 L12A was tested. Which screen value did it give?
**A.** -1.31 Z-score of the enrichment rate within one screen of 711 sequences

**Q.** Which screen value does the source give for chain 1 N9S here?
**A.** 0.752 Z-score of the enrichment rate within one screen of 711 sequences

**Q.** Which screen value does the source give for chain 1 P10L here?
**A.** 1.79 Z-score of the enrichment rate within one screen of 711 sequences

**Q.** For chain 1 K13I, which screen value is on record?
**A.** 0.477 Z-score of the enrichment rate within one screen of 711 sequences

**Q.** chain 1 K4D was tested. Which screen value did it give?
**A.** -0.172 Z-score of the enrichment rate within one screen of 711 sequences

**Q.** Which screen value does the source give for chain 1 K6A, chain 1 L12A here?
**A.** -0.715 Z-score of the enrichment rate within one screen of 711 sequences

**Q.** chain 1 N9P was tested. Which screen value did it give?
**A.** 1.77 Z-score of the enrichment rate within one screen of 711 sequences

**Q.** chain 1 R8A, chain 1 K16A was tested. Which screen value did it give?
**A.** -0.602 Z-score of the enrichment rate within one screen of 711 sequences

**Q.** For chain 1 S3D, which screen value is on record?
**A.** 0.932 Z-score of the enrichment rate within one screen of 711 sequences

**Q.** For chain 1 K4I, which screen value is on record?
**A.** 0.786 Z-score of the enrichment rate within one screen of 711 sequences

**Q.** chain 1 G11Y was tested. Which screen value did it give?
**A.** 1.26 Z-score of the enrichment rate within one screen of 711 sequences

**Q.** Which screen value does the source give for chain 1 K13G here?
**A.** -1.05 Z-score of the enrichment rate within one screen of 711 sequences

**Q.** chain 1 R8A, chain 1 L12A was tested. Which screen value did it give?
**A.** -0.76 Z-score of the enrichment rate within one screen of 711 sequences

**Q.** Which screen value does the source give for chain 1 P10Y here?
**A.** 0.723 Z-score of the enrichment rate within one screen of 711 sequences

**Q.** How did the screen value turn out when chain 1 P15E was run?
**A.** 0.418 Z-score of the enrichment rate within one screen of 711 sequences

**Q.** For chain 1 L12G, which screen value is on record?
**A.** -0.861 Z-score of the enrichment rate within one screen of 711 sequences

**Q.** How did the screen value turn out when chain 1 S3C was run?
**A.** 1.84 Z-score of the enrichment rate within one screen of 711 sequences

**Q.** chain 1 N9K was tested. Which screen value did it give?
**A.** 1.98 Z-score of the enrichment rate within one screen of 711 sequences

**Q.** For chain 1 G5M, which screen value is on record?
**A.** 2.63 Z-score of the enrichment rate within one screen of 711 sequences

**Q.** For chain 1 K6D, which screen value is on record?
**A.** 0.0134 Z-score of the enrichment rate within one screen of 711 sequences

**Q.** chain 1 N9A, chain 1 K13A was tested. Which screen value did it give?
**A.** -0.689 Z-score of the enrichment rate within one screen of 711 sequences

**Q.** With chain 1 S3A, chain 1 P15A as the variant, how does the screen value read?
**A.** 2.7 Z-score of the enrichment rate within one screen of 711 sequences

**Q.** How did the screen value turn out when chain 1 K13A, chain 1 K16A was run?
**A.** -0.809 Z-score of the enrichment rate within one screen of 711 sequences

**Q.** Which screen value does the source give for chain 1 G11F here?
**A.** 1.14 Z-score of the enrichment rate within one screen of 711 sequences

**Q.** With chain 1 P15K as the variant, how does the screen value read?
**A.** 1.65 Z-score of the enrichment rate within one screen of 711 sequences

**Q.** Which screen value does the source give for chain 1 K6A, chain 1 K13A here?
**A.** -0.984 Z-score of the enrichment rate within one screen of 711 sequences

**Q.** For chain 1 P15R, which screen value is on record?
**A.** 1.68 Z-score of the enrichment rate within one screen of 711 sequences

**Q.** Which screen value does the source give for chain 1 I14N here?
**A.** -0.906 Z-score of the enrichment rate within one screen of 711 sequences

**Q.** chain 1 G5K was tested. Which screen value did it give?
**A.** 2.33 Z-score of the enrichment rate within one screen of 711 sequences

**Q.** For chain 1 K6E, which screen value is on record?
**A.** -0.606 Z-score of the enrichment rate within one screen of 711 sequences

**Q.** How did the screen value turn out when chain 1 K6P was run?
**A.** 0.527 Z-score of the enrichment rate within one screen of 711 sequences

**Q.** With chain 1 K16A as the variant, how does the screen value read?
**A.** 0.957 Z-score of the enrichment rate within one screen of 711 sequences

**Q.** With chain 1 G5A, chain 1 P15A as the variant, how does the screen value read?
**A.** 2.65 Z-score of the enrichment rate within one screen of 711 sequences

**Q.** With chain 1 R8L as the variant, how does the screen value read?
**A.** 0.23 Z-score of the enrichment rate within one screen of 711 sequences

**Q.** chain 1 G5N was tested. Which screen value did it give?
**A.** 1.64 Z-score of the enrichment rate within one screen of 711 sequences

**Q.** With chain 1 K13N as the variant, how does the screen value read?
**A.** -0.0907 Z-score of the enrichment rate within one screen of 711 sequences

**Q.** How did the screen value turn out when chain 1 K7A, chain 1 P10A was run?
**A.** -0.226 Z-score of the enrichment rate within one screen of 711 sequences

**Q.** For chain 1 I14T, which screen value is on record?
**A.** -1.3 Z-score of the enrichment rate within one screen of 711 sequences

**Q.** Which screen value does the source give for chain 1 K13V here?
**A.** 0.144 Z-score of the enrichment rate within one screen of 711 sequences

**Q.** With chain 1 K13L as the variant, how does the screen value read?
**A.** -0.274 Z-score of the enrichment rate within one screen of 711 sequences

**Q.** chain 1 G5T was tested. Which screen value did it give?
**A.** 1.67 Z-score of the enrichment rate within one screen of 711 sequences

**Q.** Which screen value does the source give for chain 1 R8E here?
**A.** -0.5 Z-score of the enrichment rate within one screen of 711 sequences

**Q.** Which screen value does the source give for chain 1 K13D here?
**A.** -0.943 Z-score of the enrichment rate within one screen of 711 sequences

**Q.** Which screen value does the source give for chain 1 G5S here?
**A.** 1.65 Z-score of the enrichment rate within one screen of 711 sequences

**Q.** chain 1 K6V was tested. Which screen value did it give?
**A.** 0.748 Z-score of the enrichment rate within one screen of 711 sequences

**Q.** For chain 1 P10M, which screen value is on record?
**A.** 0.502 Z-score of the enrichment rate within one screen of 711 sequences

**Q.** chain 1 K6A, chain 1 I14A was tested. Which screen value did it give?
**A.** -1.08 Z-score of the enrichment rate within one screen of 711 sequences

**Q.** How did the screen value turn out when chain 1 L12H was run?
**A.** -1 Z-score of the enrichment rate within one screen of 711 sequences

**Q.** Which screen value does the source give for chain 1 K16T here?
**A.** 0.151 Z-score of the enrichment rate within one screen of 711 sequences

**Q.** chain 1 K16Q was tested. Which screen value did it give?
**A.** 0.247 Z-score of the enrichment rate within one screen of 711 sequences

**Q.** Which screen value does the source give for chain 1 K13A here?
**A.** -0.412 Z-score of the enrichment rate within one screen of 711 sequences

**Q.** Which screen value does the source give for chain 1 L12A, chain 1 K16A here?
**A.** -0.931 Z-score of the enrichment rate within one screen of 711 sequences

**Q.** With chain 1 K13S as the variant, how does the screen value read?
**A.** -0.0532 Z-score of the enrichment rate within one screen of 711 sequences

**Q.** chain 1 K4G was tested. Which screen value did it give?
**A.** 0.543 Z-score of the enrichment rate within one screen of 711 sequences

**Q.** For chain 1 K6A, which screen value is on record?
**A.** 0.653 Z-score of the enrichment rate within one screen of 711 sequences

**Q.** With chain 1 K7S as the variant, how does the screen value read?
**A.** 0.9 Z-score of the enrichment rate within one screen of 711 sequences

**Q.** chain 1 K4C was tested. Which screen value did it give?
**A.** 0.526 Z-score of the enrichment rate within one screen of 711 sequences

**Q.** For chain 1 K7D, which screen value is on record?
**A.** -0.807 Z-score of the enrichment rate within one screen of 711 sequences

**Q.** Which screen value does the source give for chain 1 L12T here?
**A.** -1.06 Z-score of the enrichment rate within one screen of 711 sequences

**Q.** Which screen value does the source give for chain 1 G5F here?
**A.** 3.61 Z-score of the enrichment rate within one screen of 711 sequences

**Q.** chain 1 P15T was tested. Which screen value did it give?
**A.** 1.24 Z-score of the enrichment rate within one screen of 711 sequences

**Q.** How did the screen value turn out when chain 1 I14A, chain 1 P15A was run?
**A.** -1.12 Z-score of the enrichment rate within one screen of 711 sequences

**Q.** Which screen value does the source give for chain 1 G11S here?
**A.** 0.683 Z-score of the enrichment rate within one screen of 711 sequences

**Q.** How did the screen value turn out when chain 1 K13A, chain 1 I14A was run?
**A.** -0.745 Z-score of the enrichment rate within one screen of 711 sequences

**Q.** How did the screen value turn out when chain 1 R8N was run?
**A.** 0.126 Z-score of the enrichment rate within one screen of 711 sequences

**Q.** With chain 1 P10S as the variant, how does the screen value read?
**A.** 0.158 Z-score of the enrichment rate within one screen of 711 sequences

**Q.** chain 1 K4Y was tested. Which screen value did it give?
**A.** 0.747 Z-score of the enrichment rate within one screen of 711 sequences
